Molecular target: rat VPAC1 receptor (rat) (UniProt P30083)
Experiment: cell-based or functional assay

Sequence of rat VPAC1 receptor (rat) (P30083 31-459): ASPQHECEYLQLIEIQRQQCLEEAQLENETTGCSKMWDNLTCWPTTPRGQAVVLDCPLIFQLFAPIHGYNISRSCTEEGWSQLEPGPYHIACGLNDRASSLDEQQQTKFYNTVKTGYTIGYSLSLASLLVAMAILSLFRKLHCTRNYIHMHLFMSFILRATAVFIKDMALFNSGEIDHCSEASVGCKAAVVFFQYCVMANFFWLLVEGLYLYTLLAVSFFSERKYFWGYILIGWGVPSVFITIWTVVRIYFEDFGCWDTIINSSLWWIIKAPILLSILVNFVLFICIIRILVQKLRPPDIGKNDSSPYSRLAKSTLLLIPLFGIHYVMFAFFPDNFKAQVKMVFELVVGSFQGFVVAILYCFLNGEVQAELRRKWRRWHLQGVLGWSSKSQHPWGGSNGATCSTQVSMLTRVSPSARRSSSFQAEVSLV

Substance | EC50, cAMP generation (DiscoveRx)
vasoactive intestinal peptide (VIP) | 0.02 nM
pituitary adenylate cyclase-activating polypeptide PACAP-27 | 0.07 nM
